Measurements from the supplement of paper PMC9170038.

Test system: MS2 coat protein
Test: apparent KD of MS2 coat protein; higher = weaker reporter binding
Conditions: Eterna round: R107
In short: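 In 100 mM Tris-HCl pH 7.5 with 80 mM KCl and 4 mM MgCl2, and without or with constant ligand, SNAP-549-labelled MS2 coat protein was titrated in twofold steps from 0.7 or 1.5 nM to 3 µM. Per-step times went from 0.8–1.5 h down to 10–20 min. The RNA switches were transcribed on-chip from Illumina sequencing clusters, and apparent KD is the per-design median of normalised cluster binding-curve fits.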

[1] = input ligand: theophylline 20 uM
[2] = input ligand: theophylline 2 mM
[3] = input ligand: tryptophan 2.4 mM

Sequence	apparent KD of MS2 coat protein (input ligand: arginine 13.2 mM) [nM]	apparent KD of MS2 coat protein [1] [nM]	apparent KD of MS2 coat protein [2] [nM]	apparent KD of MS2 coat protein (input ligand: none) [nM]	apparent KD of MS2 coat protein [3] [nM]
CUCAUCCACGCGGCCGCCACUAUUUUUAGGUGUGGGUGUGACGUAUUACAUGAGGAUCACCCAUGUAGGACCGGGCGUGGAUGAG [Walrus]	117	414	491	–	–
CUCCCGUGAGCGGCCGCCACUGGAGGCUUUGCGCGACAUGAGGAUCACCCAUGUGUGCCCGGCGUUAGGACCGGGUUCGCGUGAG [#1 Same State - Tryptophan B Attempt #16 (HarryS)]	8.8	13.9	11.2	12.3	11.2
CUGACGAGCUUUUUGUCAGGUUGUGUAGAUACCAGUUCUCUGGUGAACCCUUGGCAGCUAACAACAUGAGGAUCACCCAUGUGAU [theeternabot_exclusion_MS2_Theo_A_33]	38.5	96.5	–	–	69.8
CUGCCACGAACGGCCGCCACUUACAUGAGGAUCACCCAUGUGCCUGCGCACAAAGAAUGUCAAGAAAGGACCGGGUUCAAAUAGU [theeternabot_exclusion_MS2_Trp_B_41]	43.2	177	132	–	–
CUGCCAUGCAGAGAUACCAGUGAGCCCAGAACAUGAGGAUCACCCAUGUACGCCGCAGACCACCCUUGGCAGCUCUGCAUGGCAG [#$@$%]	12.7	16.8	6.75	12.9	10.9
CUGCCAUGCAGAGAUACCAGUGAGCCCAUAACAUGAGGAUCACCCAUGUACGCCGCAGACCACCCUUGGCAGCUCUGCAUGGCAG [&#$*@]	21.7	18.4	11.4	17.4	16.6
CUGCCAUGCAGAGAUACCAGUGAGCUCAUAACAUGAGGAUCACCCAUGUACGCCGCAGAUCACCCUUGGCAGCUCUGCAUGGCAG [!#*@)]	8.21	11.5	10.1	9.18	9.83
CUGCCAUGCAGAGAUACCAGUGCGCUCAGCACAUGAGGAUCACCCAUGUAGGAUGCCAAUCACCCUUGGCAGCUCUGCAUGGCAG [~`&)_]	15.5	22.8	12.8	15.7	16.3
CUGCCUGCCUCACAUGAGGAUCACCCAUGUCGAGGACCGGUACGGCCGCCACUCGUCGUCGGUAAUACAGGCAUUGAAUAAUAUA [Esgeusla]	9.88	14.5	11.9	–	–
CUGCUACAUACGGCCGCCACUUUAAACAUGAGGAUCACCCAUGUACGGAAGGGUGGUAAAUGUUAAAGGACCGGGUAUGUAGCAA [Tryp B Ex t1]	64.4	296	293	–	–
CUUAUUUGCUGAAGGAGCGCCCGAGGAGAAGACAUGAGGAUCACCCAUGUAUAUAGUAUAUGGCAGGUAGGUCGCGGUGGGUAGG [Arginine B Same State; Euphoria Solution 3]	28.1	65	31.2	30	26.9
CUUGACAUGAGGAUCACCCAUGUUGGUAAACGAGGACCGGUACGGCCGCCACUCGGUUACGUGUAGUACCGGUAAGAUCCAGGGU [Default title]	24.8	42.6	39	–	–
CUUGAGACAUGAGGAUCACCCAUGUCCGAAGGAGCGUGCGAAAGCACAGGUAGGUCGCGGACAUGAGGAUCACCCAUGUGAGCGA [EAA NP+V+V2 #7 DOUBLE]	13.8	25.9	40.2	21.8	22
CUUGGCUGUGCGGCCGCCACUGGCUCAUCCUGCAUUACAUGAGGAUCACCCAUGUUGCGGCCUCCCAGGACCGGGCAUAGCCUGA [Usesties]	127	702	684	–	–
GAACAUGAGGAUCACCCAUGUUAAACAGAUACCAGUGAUAUAAUACACCCUUGGCAGCUGAAGCUGAAUAAUAAUUCCCUCAAGC [#21 SameState-TheophyllineA]	13.4	17	–	–	10.5
GAAUAAAGUAGAACACAAGACUCCUGAGAAGGAGCGCAGUCAACUGCAGGUAGGUCGCUCAGGAACACAUGAGGAUCACCCAUGU [Disoonlate]	16.9	30.4	32.3	26.6	23.9
GAAUUUAUUUGAAGGAGCGUCGAAAAUGGGUAAACAUGAGGAUCACCCAUGUAAAGGGAACGACAGGUAGGUCGCAAAUGGAUUC [AstromonsSSArgB#27]	126	259	224	206	188
